{"source": "FireProtDB (doi:10.1002/pro.164)", "proteins": {"B1": {"name": "wild type, Q6T418 (protein)", "chain": "MERKTFSFLFLLLLVLASDVAVERGEARTCMIKKEGWGKCLIDTTCAHSCKNRGYIGGNCKGMTRTCYCLVNC"}}, "conditions": "Vigna radiata; pH 7; 37 °C; GdnHCl; Fluorescence; Tris-HCl 10 mM; NaCl 100 mM; whole UniProt chain shown"}
{"protein": "B1", "values": [{"measurement": "denaturant midpoint (higher = more stable)", "value": 4.17, "unit": "M"}]}
